Experimental data from article PMC7383879, “HSI2/VAL1 and HSL1/VAL2 function redundantly to repress DOG1 expression in Arabidopsis seeds and seedlings”.

Target: T1, HSI2 B3 domain (B3HSI2) (Arabidopsis thaliana, UniProt Q8W4L5 295-396)
T1 sequence: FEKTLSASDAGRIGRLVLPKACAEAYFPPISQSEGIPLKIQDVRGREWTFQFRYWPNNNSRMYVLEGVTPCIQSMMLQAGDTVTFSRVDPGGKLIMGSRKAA
Assay: EMSA; 10 mM Tris pH 7.9, 30 mM KCl, 0.1 mM EDTA, 1 mM DTT, 0.05% NP-40, 6.5% glycerol, 50 ng/ml (so in the source) poly(dIdC), 50 fmol probe, 20 min at room temperature
Settings: protein: recombinant; tags: His-Trx (Results); His (Methods, legend); label: 3' biotin; blunt

B1: mRY1 probe (dsDNA)
DNA 1: GTCCTCCACGTAATGGACTACTGCGTTATTTCTTTT
DNA 2: AAAAGAAATAACGCAGTAGTCCATTACGTGGAGGAC
binding result: no binding

B2: RY1 probe (dsDNA)
DNA 1: GTCCTCCACGTAATGCATGCATGCGTTATTTCTTTT
DNA 2: AAAAGAAATAACGCATGCATGCATTACGTGGAGGAC
binding result: binds
